B1: target 1 insU 3' of 21,insA 3' of 11 (mixed)
RNA 1: CACCCGUGCAAAAAUGCAGGGGUCUAAAACUGAGCGGAUAACCUCUCUAUGG
RNA 2: GGGAAUGGAUCCACAUCUACGAAUUCGUACCUAUAGAGAGGUAUAUCCGCUCACCGAGAUCGGAAGAGCACACGU
B2: target 1 insU 3' of 17,insG 3' of 1 (mixed)
RNA 1: CACCCGUGCAAAAAUGCAGGGGUCUAAAACUGAGCGGAUAACCUCUCUAUGG
RNA 2: GGGAAUGGAUCCACAUCUACGAAUUCGUACCAUAGUAGAGGUUAUCCGCUCAGCCGAGAUCGGAAGAGCACACGU
B3: target 2 MT 5'PFS CAU 3'PFS CGC (mixed)
RNA 1: CACCCGUGCAAAAUUGCAGGGGUCUAAAACCUUCUCCAAAUUGUUUCAUCCU
RNA 2: GGGAAUGGAUCCACAUCUACGAAUUCCAUAGGAUGAAACAAUUUGGAGAAGCGCAGAUCGGAAGAGCACACGU
B4: target 2 MT 5'PFS AUU 3'PFS UUU (mixed)
RNA 1: CACCCGUGCAAAAUUGCAGGGGUCUAAAACCUUCUCCAAAUUGUUUCAUCCU
RNA 2: GGGAAUGGAUCCACAUCUACGAAUUCAUUAGGAUGAAACAAUUUGGAGAAGUUUAGAUCGGAAGAGCACACGU
B5: target 2 MT 5'PFS AGG 3'PFS ACU (mixed)
RNA 1: CACCCGUGCAAAAUUGCAGGGGUCUAAAACCUUCUCCAAAUUGUUUCAUCCU
RNA 2: GGGAAUGGAUCCACAUCUACGAAUUCAGGAGGAUGAAACAAUUUGGAGAAGACUAGAUCGGAAGAGCACACGU
B6: target 2 MT 5'PFS UUC 3'PFS UUC (mixed)
RNA 1: CACCCGUGCAAAAUUGCAGGGGUCUAAAACCUUCUCCAAAUUGUUUCAUCCU
RNA 2: GGGAAUGGAUCCACAUCUACGAAUUCUUCAGGAUGAAACAAUUUGGAGAAGUUCAGAUCGGAAGAGCACACGU
B7: target 2 MT 5'PFS UCU 3'PFS CCG (mixed)
RNA 1: CACCCGUGCAAAAUUGCAGGGGUCUAAAACCUUCUCCAAAUUGUUUCAUCCU
RNA 2: GGGAAUGGAUCCACAUCUACGAAUUCUCUAGGAUGAAACAAUUUGGAGAAGCCGAGAUCGGAAGAGCACACGU
B8: target 2 MT 5'PFS AGG 3'PFS ACC (mixed)
RNA 1: CACCCGUGCAAAAUUGCAGGGGUCUAAAACCUUCUCCAAAUUGUUUCAUCCU
RNA 2: GGGAAUGGAUCCACAUCUACGAAUUCAGGAGGAUGAAACAAUUUGGAGAAGACCAGAUCGGAAGAGCACACGU
B9: target 2 MT 5'PFS CGC 3'PFS CUU (mixed)
RNA 1: CACCCGUGCAAAAUUGCAGGGGUCUAAAACCUUCUCCAAAUUGUUUCAUCCU
RNA 2: GGGAAUGGAUCCACAUCUACGAAUUCCGCAGGAUGAAACAAUUUGGAGAAGCUUAGAUCGGAAGAGCACACGU
B10: target 2 MT 5'PFS GUG 3'PFS UGC (mixed)
RNA 1: CACCCGUGCAAAAUUGCAGGGGUCUAAAACCUUCUCCAAAUUGUUUCAUCCU
RNA 2: GGGAAUGGAUCCACAUCUACGAAUUCGUGAGGAUGAAACAAUUUGGAGAAGUGCAGAUCGGAAGAGCACACGU
B11: target 2 MT 5'PFS AAU 3'PFS AUU (mixed)
RNA 1: CACCCGUGCAAAAUUGCAGGGGUCUAAAACCUUCUCCAAAUUGUUUCAUCCU
RNA 2: GGGAAUGGAUCCACAUCUACGAAUUCAAUAGGAUGAAACAAUUUGGAGAAGAUUAGAUCGGAAGAGCACACGU
B12: target 2 MT 5'PFS GAA 3'PFS UGU (mixed)
RNA 1: CACCCGUGCAAAAUUGCAGGGGUCUAAAACCUUCUCCAAAUUGUUUCAUCCU
RNA 2: GGGAAUGGAUCCACAUCUACGAAUUCGAAAGGAUGAAACAAUUUGGAGAAGUGUAGAUCGGAAGAGCACACGU
B13: target 1 A1U,A16U (mixed)
RNA 1: CACCCGUGCAAAAAUGCAGGGGUCUAAAACUGAGCGGAUAACCUCUCUAUGG
RNA 2: GGGAAUGGAUCCACAUCUACGAAUUCGUACCAUAGUGAGGUUAUCCGCUCUCCGAGAUCGGAAGAGCACACGU
B14: target 2 MT 5'PFS AAU 3'PFS AUC (mixed)
RNA 1: CACCCGUGCAAAAUUGCAGGGGUCUAAAACCUUCUCCAAAUUGUUUCAUCCU
RNA 2: GGGAAUGGAUCCACAUCUACGAAUUCAAUAGGAUGAAACAAUUUGGAGAAGAUCAGAUCGGAAGAGCACACGU
B15: target 2 MT 5'PFS AAU 3'PFS AUA (mixed)
RNA 1: CACCCGUGCAAAAUUGCAGGGGUCUAAAACCUUCUCCAAAUUGUUUCAUCCU
RNA 2: GGGAAUGGAUCCACAUCUACGAAUUCAAUAGGAUGAAACAAUUUGGAGAAGAUAAGAUCGGAAGAGCACACGU
B16: target 2 MT 5'PFS GAA 3'PFS UGC (mixed)
RNA 1: CACCCGUGCAAAAUUGCAGGGGUCUAAAACCUUCUCCAAAUUGUUUCAUCCU
RNA 2: GGGAAUGGAUCCACAUCUACGAAUUCGAAAGGAUGAAACAAUUUGGAGAAGUGCAGAUCGGAAGAGCACACGU
B17: target 2 MT 5'PFS AGA 3'PFS UUC (mixed)
RNA 1: CACCCGUGCAAAAUUGCAGGGGUCUAAAACCUUCUCCAAAUUGUUUCAUCCU
RNA 2: GGGAAUGGAUCCACAUCUACGAAUUCAGAAGGAUGAAACAAUUUGGAGAAGUUCAGAUCGGAAGAGCACACGU
B18: target 2 MT 5'PFS AGA 3'PFS UUA (mixed)
RNA 1: CACCCGUGCAAAAUUGCAGGGGUCUAAAACCUUCUCCAAAUUGUUUCAUCCU
RNA 2: GGGAAUGGAUCCACAUCUACGAAUUCAGAAGGAUGAAACAAUUUGGAGAAGUUAAGAUCGGAAGAGCACACGU
B19: target 2 MT 5'PFS AGA 3'PFS UUG (mixed)
RNA 1: CACCCGUGCAAAAUUGCAGGGGUCUAAAACCUUCUCCAAAUUGUUUCAUCCU
RNA 2: GGGAAUGGAUCCACAUCUACGAAUUCAGAAGGAUGAAACAAUUUGGAGAAGUUGAGAUCGGAAGAGCACACGU
B20: target 2 MT 5'PFS UUA 3'PFS CUU (mixed)
RNA 1: CACCCGUGCAAAAUUGCAGGGGUCUAAAACCUUCUCCAAAUUGUUUCAUCCU
RNA 2: GGGAAUGGAUCCACAUCUACGAAUUCUUAAGGAUGAAACAAUUUGGAGAAGCUUAGAUCGGAAGAGCACACGU
B21: target 2 MT 5'PFS AGA 3'PFS UUU (mixed)
RNA 1: CACCCGUGCAAAAUUGCAGGGGUCUAAAACCUUCUCCAAAUUGUUUCAUCCU
RNA 2: GGGAAUGGAUCCACAUCUACGAAUUCAGAAGGAUGAAACAAUUUGGAGAAGUUUAGAUCGGAAGAGCACACGU
B22: target 2 MT 5'PFS UUA 3'PFS CUA (mixed)
RNA 1: CACCCGUGCAAAAUUGCAGGGGUCUAAAACCUUCUCCAAAUUGUUUCAUCCU
RNA 2: GGGAAUGGAUCCACAUCUACGAAUUCUUAAGGAUGAAACAAUUUGGAGAAGCUAAGAUCGGAAGAGCACACGU
B23: target 2 MT 5'PFS UUA 3'PFS CUC (mixed)
RNA 1: CACCCGUGCAAAAUUGCAGGGGUCUAAAACCUUCUCCAAAUUGUUUCAUCCU
RNA 2: GGGAAUGGAUCCACAUCUACGAAUUCUUAAGGAUGAAACAAUUUGGAGAAGCUCAGAUCGGAAGAGCACACGU
B24: target 1 U10A,G12C (mixed)
RNA 1: CACCCGUGCAAAAAUGCAGGGGUCUAAAACUGAGCGGAUAACCUCUCUAUGG
RNA 2: GGGAAUGGAUCCACAUCUACGAAUUCGUACCAUAGAGAGCUAAUCCGCUCACCGAGAUCGGAAGAGCACACGU
B25: target 2 MT 5'PFS UUA 3'PFS CUG (mixed)
RNA 1: CACCCGUGCAAAAUUGCAGGGGUCUAAAACCUUCUCCAAAUUGUUUCAUCCU
RNA 2: GGGAAUGGAUCCACAUCUACGAAUUCUUAAGGAUGAAACAAUUUGGAGAAGCUGAGAUCGGAAGAGCACACGU
B26: target 2 MT 5'PFS AGU 3'PFS CUG (mixed)
RNA 1: CACCCGUGCAAAAUUGCAGGGGUCUAAAACCUUCUCCAAAUUGUUUCAUCCU
RNA 2: GGGAAUGGAUCCACAUCUACGAAUUCAGUAGGAUGAAACAAUUUGGAGAAGCUGAGAUCGGAAGAGCACACGU
B27: target 2 MT 5'PFS CCA 3'PFS CCU (mixed)
RNA 1: CACCCGUGCAAAAUUGCAGGGGUCUAAAACCUUCUCCAAAUUGUUUCAUCCU
RNA 2: GGGAAUGGAUCCACAUCUACGAAUUCCCAAGGAUGAAACAAUUUGGAGAAGCCUAGAUCGGAAGAGCACACGU
B28: target 2 MT 5'PFS AGU 3'PFS CUC (mixed)
RNA 1: CACCCGUGCAAAAUUGCAGGGGUCUAAAACCUUCUCCAAAUUGUUUCAUCCU
RNA 2: GGGAAUGGAUCCACAUCUACGAAUUCAGUAGGAUGAAACAAUUUGGAGAAGCUCAGAUCGGAAGAGCACACGU

These binders were tested against T1, EsCas13d, nuclease-dead (Eubacterium siraeum, UniProt B0MS50, R295A;H300A;R849A;H854A) (assay: crRNA (strand 1, pre-loaded); Mg2+; 40 mM Tris-HCl pH 7.5, 150 mM NaCl, 6 mM MgCl2, 1 mM DTT, 0.1% Tween-20, 0.2 mg/ml BSA; 25 C; 10 min per concentration, then washed). Settings: tags: His6-TwinStrep-SUMO cleaved; N-terminal SNAP kept (SNAP-Surface 488); label: 3' end held by stalled T7 RNA polymerase.
T1 sequence: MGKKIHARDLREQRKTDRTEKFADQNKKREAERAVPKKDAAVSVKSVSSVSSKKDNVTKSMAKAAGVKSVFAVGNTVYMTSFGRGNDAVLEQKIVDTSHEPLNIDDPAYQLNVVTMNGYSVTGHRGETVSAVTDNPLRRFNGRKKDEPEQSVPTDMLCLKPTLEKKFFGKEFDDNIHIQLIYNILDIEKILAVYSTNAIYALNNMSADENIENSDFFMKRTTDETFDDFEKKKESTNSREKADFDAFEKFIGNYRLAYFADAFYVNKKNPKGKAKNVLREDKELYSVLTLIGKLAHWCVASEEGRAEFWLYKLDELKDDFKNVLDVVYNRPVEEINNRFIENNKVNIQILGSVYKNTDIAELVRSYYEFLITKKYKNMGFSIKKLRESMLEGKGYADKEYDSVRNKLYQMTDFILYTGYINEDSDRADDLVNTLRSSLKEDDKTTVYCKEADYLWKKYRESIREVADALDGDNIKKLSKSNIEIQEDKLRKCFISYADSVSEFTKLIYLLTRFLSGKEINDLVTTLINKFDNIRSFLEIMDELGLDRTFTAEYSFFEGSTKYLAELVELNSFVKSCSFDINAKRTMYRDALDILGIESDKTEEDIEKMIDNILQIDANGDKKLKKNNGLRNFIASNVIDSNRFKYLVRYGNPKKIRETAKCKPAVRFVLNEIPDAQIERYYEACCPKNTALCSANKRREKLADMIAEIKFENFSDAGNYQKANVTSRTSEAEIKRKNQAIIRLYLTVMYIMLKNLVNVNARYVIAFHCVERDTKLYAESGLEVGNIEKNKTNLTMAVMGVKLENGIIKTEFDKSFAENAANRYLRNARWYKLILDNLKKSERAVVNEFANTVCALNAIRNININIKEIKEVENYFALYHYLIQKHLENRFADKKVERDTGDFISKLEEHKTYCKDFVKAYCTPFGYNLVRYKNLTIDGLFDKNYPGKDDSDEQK
B1 gave a Kd of 49 ± 5 nM.
B2 showed a Kd of 17.7 ± 2.1 nM.
With B3 the Kd was 3.4 ± 0.6 nM.
For B4, the Kd was 32 ± 7 nM.
In the case of B5, the Kd is reported as 8.1 ± 1.8 nM.
Binder B6 has a Kd of 31 ± 8 nM.
For B7, the Kd was 17.4 ± 3 nM.
B8 gave a Kd of 15 ± 6 nM.
Binder B9 has a Kd of 14 ± 4 nM.
B10 showed a Kd of 17.1 ± 2.5 nM.
B11 was tested, and the Kd was 5.3 ± 0.6 nM.
In the case of B12, the Kd is reported as 18 ± 2.7 nM.
B13 was tested, and the Kd was 70 ± 13 nM.
B14 was tested, and the Kd was 6.3 ± 0.7 nM.
For B15, the Kd was 4.5 ± 0.9 nM.
With B16 the Kd was 13.2 ± 2.6 nM.
B17 was tested, and the Kd was 18 ± 5 nM.
With B18 the Kd was 11.7 ± 2.2 nM.
For B19, the Kd was 6.1 ± 1 nM.
With B20 the Kd was 36 ± 6 nM.
Work on B21 yielded a Kd of 13.2 ± 2.6 nM.
In the case of B22, the Kd is reported as 20.9 ± 3.3 nM.
B23 was tested, and the Kd was 55 ± 16 nM.
B24 showed a Kd of 8.6 ± 1 nM.
For B25, the Kd was 24 ± 2.7 nM.
B26 gave a Kd of 11.4 ± 1.5 nM.
B27 was tested, and the Kd was 4.9 ± 0.6 nM.
Binder B28 has a Kd of roughly 50 nM.
